Measured values from publication PMC7438327 (Cell Death & Disease, 2020).
Each block holds one binder with its values, some of them ahead of it.

Experiments:
[1] = biological target: T1, oligomycin sensitivity-conferring protein (OSCP) tagged with Clover GFP (UniProt P48047 24-213); test: FRET or BRET; HEK cells transfected with OSCP-Clover and WT or mutant CypD-Scarlet downstream of an IRES; excitation 458 nm, emission 505-540 nm and 575-620 nm; FRET ratio; conditions: partners not purified
T1 construct: OSCP subunit of the mitochondrial ATP synthase; One vector carries OSCP-Clover and, downstream of an IRES, CypD-Scarlet; also called OSCP-Clover; OSCP subunit of the ATP synthase; source: HEK cells, transfected, in cells
T1 sequence (looked up): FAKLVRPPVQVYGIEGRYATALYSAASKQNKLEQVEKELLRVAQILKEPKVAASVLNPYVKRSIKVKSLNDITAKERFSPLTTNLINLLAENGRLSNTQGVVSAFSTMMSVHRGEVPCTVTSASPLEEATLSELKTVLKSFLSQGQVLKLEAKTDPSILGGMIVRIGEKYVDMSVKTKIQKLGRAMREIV

[2] = biological target: T2, oligomycin sensitivity-conferring protein (OSCP), endogenous in HEK cells (human (endogenous in HEK), UniProt P48047 24-213); test: co-IP; OSCP immunoprecipitation in HEK CypD mutant cell lines, immunoblots of CypD and OSCP; quantified as fold vs. WT; conditions: partners not purified
T2 construct: OSCP subunit of the mitochondrial ATP synthase, immunoprecipitated or stained in HEK cell lines; also called OSCP subunit of the ATP synthase; source: endogenous, HEK CypD mutant cell lines
T2 sequence (looked up): T1 sequence (looked up)

FRET ratio [1]: 1.29
B2: cyclophilin D (CypD) phosphoresistant S191A mutant tagged with Scarlet (natural protein)
chain: not shown
notes: source: HEK cells, transfected, in cells

CypD co-immunoprecipitated with OSCP, fold vs. WT [2]: 0.65 fold vs. WT
B5: cyclophilin D (CypD) phosphoresistant S191A mutant, rescued in HEK CypD-KO cells (natural protein)
chain: not shown
notes: also called phosphoresistant S191A group; source: HEK CypD-KO cells (CRISPR/Cas9) rescued with mutated CypD, in cells or lysate

The remaining lines, values behind:

B1: cyclophilin D (CypD) WT tagged with Scarlet (natural protein)
chain: not shown
notes: also called PPIF; source: HEK cells, transfected, in cells
FRET ratio [1]: 1.92

B3: cyclophilin D (CypD) phosphomimetic S191E mutant tagged with Scarlet (natural protein)
chain: not shown
notes: also called phosphomimetic mutant S191E; source: HEK cells, transfected, in cells
FRET ratio [1]: 2.44

B4: cyclophilin D (CypD) WT, rescued in HEK CypD-KO cells (natural protein)
chain: not shown
notes: also called WT group; source: HEK CypD-KO cells (CRISPR/Cas9) rescued with WT CypD, in cells or lysate
CypD co-immunoprecipitated with OSCP, fold vs. WT [2]: 1 fold vs. WT

B6: cyclophilin D (CypD) phosphomimetic S191E mutant, rescued in HEK CypD-KO cells (natural protein)
chain: not shown
notes: also called phosphomimetic S191E group; source: HEK CypD-KO cells (CRISPR/Cas9) rescued with mutated CypD, in cells or lysate
CypD co-immunoprecipitated with OSCP, fold vs. WT [2]: 1.48 fold vs. WT
